Results from the supplement of paper PMC9112550, “Optimization of the antimicrobial peptide Bac7 by deep mutational scanning” (BMC Biology, 2022).

Test system: Escherichia coli TOP10
Assay: shrunken log2 fold change of peptide-encoding DNA abundance (4.5 h post-induction vs induction); higher = less antimicrobial activity (less host growth inhibition)
Details: time post-induction: 4.5 h; library: site-saturation at positions 5, 18, 19, 20
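Note: peptides expressed intracellularly from a pBAD plasmid library in pooled LB shake-flask culture, induced with 0.3% L-arabinose, DNA abundance read by NGS, three biological replicates, DESeq2 with apeglm shrinkage.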

| Sequence | shrunken log2 fold change |
| --- | --- |
| RRIRPRPPRLPRPRPRPDPWPRP | -0.0279 |
| RRIRQRPPRLPRPRPRPYRYPRP | -0.0123 |
| RRIRERPPRLPRPRPRPFHCPRP | -0.175 |
| RRIRIRPPRLPRPRPRPHFLPRP | -1.42 |
| RRIRHRPPRLPRPRPRPITLPRP | 0.0184 |
| RRIRNRPPRLPRPRPRPCLWPRP | -0.359 |
| RRIRNRPPRLPRPRPRPVGQPRP | -0.185 |
| RRIRLRPPRLPRPRPRPTKHPRP | -0.14 |
| RRIRERPPRLPRPRPRPQANPRP | -0.0396 |
| RRIRNRPPRLPRPRPRPSSVPRP | 0.066 |
| RRIRYRPPRLPRPRPRPPWHPRP | -0.507 |
| RRIRFRPPRLPRPRPRPVYNPRP | -1.27 |
| RRIRQRPPRLPRPRPRPDTAPRP | -0.0746 |
| RRIRMRPPRLPRPRPRPCPLPRP | -0.0594 |
| RRIRPRPPRLPRPRPRPGYRPRP | -0.051 |
| RRIRWRPPRLPRPRPRPRFGPRP | 0.395 |
| RRIRFRPPRLPRPRPRPSHLPRP | -0.737 |
| RRIRDRPPRLPRPRPRPMNQPRP | -0.334 |
| RRIRPRPPRLPRPRPRPNRTPRP | -0.0847 |
| RRIRHRPPRLPRPRPRPMTGPRP | -0.218 |
| RRIRYRPPRLPRPRPRPTPKPRP | 0.167 |
| RRIRCRPPRLPRPRPRPCIIPRP | -0.538 |
| RRIRLRPPRLPRPRPRPIRQPRP | -0.0246 |
| RRIRHRPPRLPRPRPRPSHDPRP | -0.0756 |
| RRIRIRPPRLPRPRPRPNKVPRP | -0.393 |

| Sequence | shrunken log2 fold change |
| --- | --- |
| RRIRFRPPRLPRPRPRPGYFPRP | -0.278 |
| RRIRIRPPRLPRPRPRPKDHPRP | -0.222 |
| RRIRNRPPRLPRPRPRPWMCPRP | -1.23 |
| RRIRMRPPRLPRPRPRPDRSPRP | -0.178 |
| RRIRSRPPRLPRPRPRPLSDPRP | -0.0692 |
| RRIRWRPPRLPRPRPRPYALPRP | 0.0509 |
| RRIRHRPPRLPRPRPRPVFVPRP | -0.182 |
| RRIRGRPPRLPRPRPRPQDTPRP | 0.0614 |
| RRIRIRPPRLPRPRPRPLIDPRP | -0.42 |
| RRIRMRPPRLPRPRPRPSEIPRP | -0.00151 |
| RRIRPRPPRLPRPRPRPGHWPRP | 0.123 |
| RRIRFRPPRLPRPRPRPDICPRP | -0.0857 |
| RRIRIRPPRLPRPRPRPWRYPRP | -0.0701 |
| RRIRIRPPRLPRPRPRPDCKPRP | -0.477 |
| RRIRPRPPRLPRPRPRPLASPRP | 0.104 |
| RRIRQRPPRLPRPRPRPFLTPRP | -0.156 |
| RRIRSRPPRLPRPRPRPFPSPRP | -0.168 |
| RRIRPRPPRLPRPRPRPWLWPRP | 0.0404 |
| RRIRLRPPRLPRPRPRPVTLPRP | -0.751 |
| RRIRNRPPRLPRPRPRPKECPRP | 0.00801 |
| RRIRQRPPRLPRPRPRPHTEPRP | 0.0633 |
| RRIRWRPPRLPRPRPRPQHIPRP | -0.736 |
| RRIRPRPPRLPRPRPRPGDNPRP | -0.00764 |
| RRIRDRPPRLPRPRPRPEYVPRP | -0.00373 |
| RRIRYRPPRLPRPRPRPDMQPRP | 0.0426 |

| Sequence | shrunken log2 fold change |
| --- | --- |
| RRIRHRPPRLPRPRPRPITVPRP | -0.0184 |
| RRIRDRPPRLPRPRPRPFPWPRP | -0.192 |
| RRIRYRPPRLPRPRPRPCNFPRP | -0.303 |
| RRIRGRPPRLPRPRPRPSSEPRP | 0.351 |
| RRIRTRPPRLPRPRPRPTTTPRP | 0.168 |
| RRIRWRPPRLPRPRPRPCLPPRP | -0.341 |
| RRIRARPPRLPRPRPRPVKGPRP | -0.00146 |
| RRIRNRPPRLPRPRPRPPSIPRP | -0.0153 |
| RRIRERPPRLPRPRPRPTEFPRP | 0.000688 |
| RRIRSRPPRLPRPRPRPPMRPRP | 1.02 |
| RRIRNRPPRLPRPRPRPRFVPRP | -0.384 |
| RRIRNRPPRLPRPRPRPAGQPRP | 0.0891 |
| RRIRFRPPRLPRPRPRPQGHPRP | 0.0395 |
| RRIRCRPPRLPRPRPRPVMIPRP | -0.0658 |
| RRIRNRPPRLPRPRPRPFVHPRP | -0.568 |
| RRIRMRPPRLPRPRPRPMVLPRP | -0.0251 |
| RRIRARPPRLPRPRPRPAYAPRP | 0.476 |
| RRIRLRPPRLPRPRPRPGHYPRP | -0.0695 |
| RRIRFRPPRLPRPRPRPNAFPRP | 0.00827 |
| RRIRRRPPRLPRPRPRPPQHPRP | 1.2 |
| RRIRARPPRLPRPRPRPRLTPRP | 1.58 |
| RRIRPRPPRLPRPRPRPFIQPRP | -0.671 |
| RRIRHRPPRLPRPRPRPFYRPRP | -0.0975 |
| RRIRFRPPRLPRPRPRPCEEPRP | 0.178 |
| RRIRLRPPRLPRPRPRPCLTPRP | -0.304 |

| Sequence | shrunken log2 fold change |
| --- | --- |
| RRIRARPPRLPRPRPRPKWWPRP | 0.149 |
| RRIRVRPPRLPRPRPRPWKYPRP | -0.0321 |
| RRIRHRPPRLPRPRPRPAGRPRP | 0.29 |
| RRIRIRPPRLPRPRPRPDNGPRP | -0.375 |
| RRIRNRPPRLPRPRPRPDPFPRP | -0.582 |
| RRIRTRPPRLPRPRPRPGSNPRP | -0.415 |
| RRIRVRPPRLPRPRPRPATPPRP | 0.35 |
| RRIRMRPPRLPRPRPRPPMAPRP | 0.841 |
| RRIRRRPPRLPRPRPRPKFHPRP | 0.323 |
| RRIRKRPPRLPRPRPRPRKNPRP | 0.876 |
| RRIRARPPRLPRPRPRPIQPPRP | -0.0587 |
| RRIRWRPPRLPRPRPRPTYVPRP | 0.0417 |
| RRIRRRPPRLPRPRPRPMLDPRP | 0.116 |
| RRIRLRPPRLPRPRPRPHWSPRP | 0.0161 |
| RRIRARPPRLPRPRPRPWGMPRP | -0.00469 |
| RRIRARPPRLPRPRPRPARFPRP | 1.03 |
| RRIRKRPPRLPRPRPRPKASPRP | 0.0517 |
| RRIRQRPPRLPRPRPRPQSTPRP | -0.631 |
| RRIRDRPPRLPRPRPRPPLTPRP | 0.307 |
| RRIRFRPPRLPRPRPRPYPHPRP | -1.04 |
| RRIRDRPPRLPRPRPRPDMPPRP | -0.0262 |
| RRIRWRPPRLPRPRPRPVWCPRP | 0.0155 |
| RRIRPRPPRLPRPRPRPEFGPRP | 0.327 |
| RRIRIRPPRLPRPRPRPGVWPRP | 0.191 |
| RRIRDRPPRLPRPRPRPDFCPRP | -0.0409 |

| Sequence | shrunken log2 fold change |
| --- | --- |
| RRIRKRPPRLPRPRPRPRGMPRP | 0.357 |
| RRIRLRPPRLPRPRPRPHHCPRP | -0.301 |
| RRIRSRPPRLPRPRPRPWGRPRP | 0.196 |
| RRIRNRPPRLPRPRPRPFMFPRP | -0.399 |
| RRIRDRPPRLPRPRPRPFWGPRP | 0.127 |
| RRIRARPPRLPRPRPRPGAVPRP | 0.578 |
| RRIRERPPRLPRPRPRPVTEPRP | -0.255 |
| RRIRERPPRLPRPRPRPMSIPRP | -0.239 |
| RRIRHRPPRLPRPRPRPKDYPRP | 0.0577 |
| RRIRYRPPRLPRPRPRPTKCPRP | -0.544 |
| RRIRNRPPRLPRPRPRPEQSPRP | 0.338 |
| RRIRNRPPRLPRPRPRPFHVPRP | -0.128 |
| RRIRYRPPRLPRPRPRPHSRPRP | -0.103 |
| RRIRGRPPRLPRPRPRPWKRPRP | -0.0496 |
| RRIRQRPPRLPRPRPRPPKTPRP | 0.113 |
| RRIRNRPPRLPRPRPRPVARPRP | 0.23 |
| RRIRDRPPRLPRPRPRPSNYPRP | -0.29 |
| RRIRQRPPRLPRPRPRPIQYPRP | -0.151 |
| RRIRCRPPRLPRPRPRPIERPRP | 0.0355 |
| RRIRVRPPRLPRPRPRPEVSPRP | 0.0554 |
| RRIRWRPPRLPRPRPRPFWWPRP | 0.402 |
| RRIRFRPPRLPRPRPRPPLWPRP | 0.46 |
| RRIRTRPPRLPRPRPRPNKHPRP | -0.448 |
| RRIRPRPPRLPRPRPRPEPAPRP | 0.572 |
| RRIRCRPPRLPRPRPRPNLAPRP | -0.122 |

| Sequence | shrunken log2 fold change |
| --- | --- |
| RRIRARPPRLPRPRPRPVCLPRP | 0.138 |
| RRIRRRPPRLPRPRPRPYHNPRP | -0.819 |
| RRIRRRPPRLPRPRPRPAMWPRP | 0.451 |
| RRIRFRPPRLPRPRPRPEVPPRP | -0.0248 |
| RRIRKRPPRLPRPRPRPVTPPRP | 0.307 |
| RRIRKRPPRLPRPRPRPICFPRP | 0.272 |
| RRIRERPPRLPRPRPRPQRWPRP | 0.117 |
| RRIRERPPRLPRPRPRPKDNPRP | -0.342 |
| RRIRDRPPRLPRPRPRPWILPRP | -0.201 |
| RRIRNRPPRLPRPRPRPYMLPRP | -0.14 |
| RRIRARPPRLPRPRPRPMFKPRP | -0.106 |
| RRIRDRPPRLPRPRPRPAAKPRP | 0.359 |
| RRIRGRPPRLPRPRPRPWDNPRP | -0.0364 |
| RRIRYRPPRLPRPRPRPFWWPRP | -0.102 |
| RRIRDRPPRLPRPRPRPKVPPRP | -0.00145 |
| RRIRQRPPRLPRPRPRPLSKPRP | -0.194 |
| RRIRGRPPRLPRPRPRPVRAPRP | 1.01 |
| RRIRMRPPRLPRPRPRPLMQPRP | 0.29 |
| RRIRFRPPRLPRPRPRPTYGPRP | -0.252 |
| RRIRQRPPRLPRPRPRPDWVPRP | 0.116 |
| RRIRFRPPRLPRPRPRPVMHPRP | -0.461 |
| RRIRFRPPRLPRPRPRPKSNPRP | -0.358 |
| RRIRSRPPRLPRPRPRPLLSPRP | -0.051 |
| RRIRVRPPRLPRPRPRPPEIPRP | -0.0437 |
| RRIRYRPPRLPRPRPRPVFTPRP | -0.574 |
